According to PMC3099546:

Substrate: CCCCC/C=C\C\C=C/C=C/C=C/[C@@H](SC[C@H](NC(=O)CC[C@H](N)C(=O)O)C(=O)NCC(=O)O)[C@@H](O)CCCC(=O)O
Experiment: purified protein

B1: gamma-glutamyl leukotrienase (GGT5) (Homo sapiens) (protein)
chain 1: SRHQAPCGPQAFAHAAVAADSKVCSDIGRAILQQQGSPVDATIAALVCTSVVNPQSMGLGGGVIFTIYNVTTGKVEVINARETVPASHAPSLLDQCAQALPLGTGAQWIGVPGELRGYAEAHRRHGRLPWAQLFQPTIALLRGGHVVAPVLSRFLHNSILRPSLQASTLRQLFFNGTEPLRPQDPLPWPALATTLETVATEGVEVFYTGRLGQMLVEDIAKEGSQLTLQDLAKFQPEVVDALEVPLGDYTLYSPPPPAGGAILSFILNVLRGFNFSTESMARPEGRVNVYHHLVETLKFAKGQRWRLGDPRSHPKLQNASRDLLGETLAQLIRQQIDGRGDHQLSHYSLAEAWGHGTG
chain 2: TSHVSVLGEDGSAVAATSTINTPFGAMVYSPRTGIILNNELLDLCERCPRGSGTTPSPVSGDRVGGAPGRCWPPVPGERSPSSMVPSILINKAQGSKLVIGGAGGELIISAVAQAIMSKLWLGFDLRAAIAAPILHVNSKGCVEYEPNFSQEVQRGLQDRGQNQTQRPFFLNVVQAVSQEGACVYAVSDLRKSGEAAGY
**Q.** Which Km does the source give for B1 here?
**A.** 10.2 ± 0.1 µM

**Q.** What about the kcat of the same protein?
**A.** 3.33 s⁻¹

**Q.** And the kcat/Km?
**A.** 317000 M⁻¹ s⁻¹
